Experimental data reported in PMC6451933.

Molecular target: t-SNARE complex (syntaxin 1 and SNAP25) (UniProt Q16623)
Sequence (Q16623 whole entry, chain 1 of 2): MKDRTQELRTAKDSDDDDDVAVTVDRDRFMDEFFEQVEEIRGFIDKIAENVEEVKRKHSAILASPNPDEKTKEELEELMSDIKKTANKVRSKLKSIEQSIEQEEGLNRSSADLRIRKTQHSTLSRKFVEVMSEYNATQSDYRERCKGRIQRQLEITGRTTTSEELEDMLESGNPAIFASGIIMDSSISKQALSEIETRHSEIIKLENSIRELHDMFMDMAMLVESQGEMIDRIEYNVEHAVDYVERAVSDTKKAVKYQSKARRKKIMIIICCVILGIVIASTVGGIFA
Sequence (chain, as listed by the source, chain 2 of 2): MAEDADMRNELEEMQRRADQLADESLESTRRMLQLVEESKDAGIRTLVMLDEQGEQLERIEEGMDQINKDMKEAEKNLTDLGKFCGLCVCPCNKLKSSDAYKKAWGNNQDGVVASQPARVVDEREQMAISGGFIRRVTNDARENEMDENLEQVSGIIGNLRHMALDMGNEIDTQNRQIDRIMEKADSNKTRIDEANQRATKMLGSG

VAMP2 p.Ser75Pro variant (from UniProt P63027 1-116) (natural protein)
reconstituted liposome lipid-mixing assay (NBD dequenching), basal fusion without Munc18-1 of v-liposomes with t-SNARE liposomes, against WT VAMP2: 25%
